The results in this text go back to US20230002496A1 (STAIDSON BEIJING BIOPHARMACEUTICALS, published 2023).

In assay [1] the target is T1, human GM-CSFRα-6His (human, UniProt P15509 23-320).
T1 construct: pTT5-GMRa-6his (ECD), made in 293F cells; also called GMRah; GMRa-6his(ECD)
T1 sequence: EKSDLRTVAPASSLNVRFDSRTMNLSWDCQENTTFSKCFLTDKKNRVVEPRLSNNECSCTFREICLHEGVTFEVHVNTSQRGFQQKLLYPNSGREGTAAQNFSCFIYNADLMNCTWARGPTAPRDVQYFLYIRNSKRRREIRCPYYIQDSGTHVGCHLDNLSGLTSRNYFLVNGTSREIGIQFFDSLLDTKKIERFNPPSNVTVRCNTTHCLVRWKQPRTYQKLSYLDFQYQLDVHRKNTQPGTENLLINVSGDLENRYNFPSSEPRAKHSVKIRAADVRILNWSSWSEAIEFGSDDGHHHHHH
Put plainly: ELISA on human GM-CSFRα, antibodies as human IgG1; x axis 'Log Ab concentration', no unit. (In general: ELISA stands for enzyme-linked immunosorbent assay.)

Assay [2] deals with T1, human GM-CSFRα-6His. Described as above. The source holds these as a separate data set.
The target in assay [3] is T1, human GM-CSFRα-6His. Put plainly: competitive ELISA, title on the sheet 'Blocking GMRah binding to GM-CSF'; antibody (human IgG4) titrated; blocked ligand GM-CSF; x axis 'Log Ab concentration', no unit.

B1: E09-IgG1 (antibody, V domains shown)
VH: QMQLVQSGAEVKKPGASVKVSCKVSGHTLTELSMHWVRQAPGKGLEWMGGFDPEDGETIYAQKFQGRVTMTGDTSTDTAYLELSSLRSEDTALYYCATGRYCGHASCYGFDYWGQGTLVTVSS
VL: EIVMTQSPATLSLSPGERATLSCRASQSVSSYLAWYQQKPGQAPRLLIYGASSRATGIPDRFSGSGSGTDFTLTISRLEPEDFAVYYCQQYNNWPPTFGQGTKLEIK
notes: human IgG1, human kappa; also called E9
In the case of B1, the binding result in the assay with human GM-CSFRα-6His [1] is reported as “binds”.

B2: T119-IgG1 (antibody, V domains shown)
VH: QMQLVQSGAEVKKPGASVKVSCKVSGHTLTELSIHWVRQAPGKGLEWMGGFDPEDGETNYAQKSQGRVTMTGDTSTDTAYLELSSLRSEDTALYYCATGRYCSTDTCYGFDYWGQGTLVTVSS
VL: EIVMTQSPATLSLSPGERATLSCRASQSVSSYLAWYQQKPGQAPRLLIYGASSRATGIPDRFSGSGSGTDFTLTISRLEPEDFAVYYCQQYNNWPPTFGQGTKLEIK
notes: human IgG1, human kappa; parent antibody
In the case of B2, in the assay with human GM-CSFRα-6His [1], the binding result is “binds”.

B3: E30-IgG1 (antibody, V domains shown)
VH: QMQLVQSGAEVKKPGASVKVSCKVSGHTLTELSIHWVRQAPGKGLEWMGGFDPEDGETIYAQKFQGRVTMTGDTSTDTAYLELSSLRSEDTALYYCATGRYCSTDTCYGFDYWGQGTLVTVSS
VL: EIVMTQSPATLSLSPGERATLSCRASQSVSSYLAWYQQKPGQAPRLLIYGASSRATGIPDRFSGSGSGTDFTLTISRLEPEDFAVYYCQQYDNSPHTFGQGTKLEIK
notes: human IgG1, human kappa
With B3, the binding result with human GM-CSFRα-6His [1] is “binds”.

B4: E39-IgG1 (antibody, V domains shown)
VH: QMQLVQSGAEVKKPGASVKVSCKVSGHTLTELSIHWVRQAPGKGLEWMGGFDPEDGETIYAQKFQGRVTMTGDTSTDTAYLELSSLRSEDTALYYCATGRYCSSDLCYGFDYWGQGTLVTVSS
VL: EIVMTQSPATLSLSPGERATLSCRASQSVSSYLAWYQQKPGQAPRLLIYGASSRATGIPDRFSGSGSGTDFTLTISRLEPEDFAVYYCQQYDNSPHTFGQGTKLEIK
notes: human IgG1, human kappa
For B4, in the assay with human GM-CSFRα-6His [2], the binding result is “binds”.

B5: E54-IgG1 (antibody, V domains shown)
VH: QMQLVQSGAEVKKPGASVKVSCKVSGYTLTELSMHWVRQAPGKGLEWMGGFDPEDGETIYAQKFQGRVTMTGDTSTDTAYLELSSLRSEDTALYYCATGRYSSYDIAYGFDYWGQGTLVTVSS
VL: EIVMTQSPATLSLSPGERATLSCRASQSVSSYLAWYQQKPGQAPRLLIYGASSRATGIPDRFSGSGSGTDFTLTISRLEPEDFAVYYCQQYNSSPPTFGQGTKLEIK
notes: human IgG1, human kappa
For the molecule B5, in the assay with human GM-CSFRα-6His [1], the binding result is listed as “binds”.

B6: E29-IgG1 (antibody, V domains shown)
VH: QMQLVQSGAEVKKPGASVKVSCKVSGHTLTELSIHWVRQAPGKGLEWMGGFDPEDGETIYAQKFQGRVTMTGDTSTDTAYLELSSLRSEDTALYYCATGRYCFPDTCYGFDYWGQGTLVTVSS
VL: EIVMTQSPATLSLSPGERATLSCRASQSVSSYLAWYQQKPGQAPRLLIYGASSRATGIPDRFSGSGSGTDFTLTISRLEPEDFAVYYCQQYDNSPHTFGQGTKLEIK
notes: human IgG1, human kappa
On to B6, for which the binding result with human GM-CSFRα-6His [1] was “binds”.

B7: E113-IgG1 (antibody, V domains shown)
VH: QMQLVQSGAEVKKPGASVKVSCKVSGYTLTELSIHWVRQAPGKGLEWMGGFDPEDGETIYAQKSQGRVTMTGDTSTDTAYLELSSLRSEDTALYYCATGRYTELFASYGFDYWGQGTLVTVSS
VL: EIVMTQSPATLSLSPGERATLSCRASQSVSSYLAWYQQKPGQAPRLLIYGASSRATGIPDRFSGSGSGTDFTLTISRLEPEDFAVYYCQQYNNWPYTFGQGTKLEIK
notes: human IgG1, human kappa
On to B7, for which, in the assay with human GM-CSFRα-6His [2], the binding result is reported as “binds”.

B8: E87-IgG1 (antibody, V domains shown)
VH: QMQLVQSGAEVKKPGASVKVSCKVSGYTLTELSIHWVRQAPGKGLEWMGGFDPEDGETIYAQKSQGRVTMTGDTSTDTAYLELSSLRSEDTALYYCATGRYVSLFFNYGFDYWGQGTLVTVSS
VL: EIVMTQSPATLSLSPGERATLSCRASQSVSSYLAWYQQKPGQAPRLLIYGASSRATGIPDRFSGSGSGTDFTLTISRLEPEDFAVYYCQQYNNWPPTFGQGTKLEIK
notes: human IgG1, human kappa
B8: the binding result with human GM-CSFRα-6His [2] is recorded as “binds”.

B9: E113-IgG4 (antibody, V domains shown)
VH: QMQLVQSGAEVKKPGASVKVSCKVSGYTLTELSIHWVRQAPGKGLEWMGGFDPEDGETIYAQKSQGRVTMTGDTSTDTAYLELSSLRSEDTALYYCATGRYTELFASYGFDYWGQGTLVTVSS
VL: EIVMTQSPATLSLSPGERATLSCRASQSVSSYLAWYQQKPGQAPRLLIYGASSRATGIPDRFSGSGSGTDFTLTISRLEPEDFAVYYCQQYNNWPYTFGQGTKLEIK
notes: human IgG4, human kappa
B9: the binding result with human GM-CSFRα-6His [3] is “binds”.

B10: E200a-IgG1 (antibody, V domains shown)
VH: QMQLVQSGAEVKKPGASVKVSCKVSGYTLTELPMHWVRQAPGKGLEWMGGFDPEDGETIYAQKFQGRVTMTGDTSTDTAYLELSSLRSEDTALYYCATGRYTIITTNYGFDYWGQGTLVTVSS
VL: EIVMTQSPATLSLSPGERATLSCRASQSVSSYLAWYQQKPGQAPRLLIYGASSRATGIPDRFSGSGSGTDFTLTISRLEPEDFAVYYCQQYDNWPPTFGQGTKLEIK
notes: human IgG1, human kappa
Consider B10, for which the binding result in the assay with human GM-CSFRα-6His [2] is “binds”.

B11: E40-IgG1 (antibody, V domains shown)
VH: QMQLVQSGAEVKKPGASVKVSCKVSGHTLTELSIHWVRQAPGKGLEWMGGFDPEDGETIYAQKFQGRVTMTGDTSTDTAYLELSSLRSEDTALYYCATGRYTSLDESYGFDYWGQGTLVTVSS
VL: EIVMTQSPATLSLSPGERATLSCRASQSVSSYLAWYQQKPGQAPRLLIYGASSRATGIPDRFSGSGSGTDFTLTISRLEPEDFAVYYCQQYDNSPYTFGQGTKLEIK
notes: human IgG1, human kappa
As to B11, in the assay with human GM-CSFRα-6His [2], the binding result is “binds”.

B12: EII55-IgG1 (antibody, V domains shown)
VH: QMQLVQSGAEVKKPGASVKVSCKVSGYTLTELSIHWVRQAPGKGLEWMGGFDGDWHETIYAQKFQGRVTMTGDTSTDTAYLELSSLRSEDTALYYCATGRYTSLDATYGFDYWGQGTLVTVSS
VL: EIVMTQSPATLSLSPGERATLSCRASQSVSSYLAWYQQKPGQAPRLLIYGASSRATGIPDRFSGSGSGTDFTLTISRLEPEDFAVYYCQQYGNRPDTFGQGTKLEIK
notes: human IgG1, human kappa
In the case of B12, the binding result with human GM-CSFRα-6His [2] is reported as “binds”.

B13: E27-IgG1 (antibody, V domains shown)
VH: QMQLVQSGAEVKKPGASVKVSCKVSGYTLTELSIHWVRQAPGKGLEWMGGFDPEDGETIYAQKFQGRVTMTGDTSTDTAYLELSSLRSEDTALYYCATGRYISFMFTYGFDYWGQGTLVTVSS
VL: EIVMTQSPATLSLSPGERATLSCRASQSVSSYLAWYQQKPGQAPRLLIYGASSRATGIPDRFSGSGSGTDFTLTISRLEPEDFAVYYCQQYNNWPPTFGQGTKLEIK
notes: human IgG1, human kappa
With B13, in the assay with human GM-CSFRα-6His [1], the binding result is given as “binds”.

B14: E34-IgG1 (antibody, V domains shown)
VH: QMQLVQSGAEVKKPGASVKVSCKVSGYTLTELSIHWVRQAPGKGLEWMGGFDPEDGETIYAQKFQGRVTMTGDTSTDTAYLELSSLRSEDTALYYCATGRYSFTDLAYGFDYWGQGTLVTVSS
VL: EIVMTQSPATLSLSPGERATLSCRASQSVSSYLAWYQQKPGQAPRLLIYGASSRATGIPDRFSGSGSGTDFTLTISRLEPEDFAVYYCQQYDSSPPTFGQGTKLEIK
notes: human IgG1, human kappa
As to B14, in the assay with human GM-CSFRα-6His [1], the binding result is “binds”.

B15: E85-IgG1 (antibody, V domains shown)
VH: QMQLVQSGAEVKKPGASVKVSCKVSGYTLTELSIHWVRQAPGKGLEWMGGFDPEDGETIYAQKSQGRVTMTGDTSTDTAYLELSSLRSEDTALYYCATGRYSSYFTNYGFDYWGQGTLVTVSS
VL: EIVMTQSPATLSLSPGERATLSCRASQSVSSYLAWYQQKPGQAPRLLIYGASSRATGIPDRFSGSGSGTDFTLTISRLEPEDFAVYYCQQYNNWPYTFGQGTKLEIK
notes: human IgG1, human kappa
B15: the binding result with human GM-CSFRα-6His [2] was “binds”.

B16: E105-IgG1 (antibody, V domains shown)
VH: QMQLVQSGAEVKKPGASVKVSCKVSGYTLTELSIHWVRQAPGKGLEWMGGFDPEDGETIYAQKFQGRVTMTGDTSTDTAYLELSSLRSEDTALYYCATGRYTSLMFTYGFDYWGQGTLVTVSS
VL: EIVMTQSPATLSLSPGERATLSCRASQSVSSYLAWYQQKPGQAPRLLIYGASSRATGIPDRFSGSGSGTDFTLTISRLEPEDFAVYYCQQYNNWPPTFGQGTKLEIK
notes: human IgG1, human kappa
Take B16: the binding result with human GM-CSFRα-6His [2] is on record as “binds”.

B17: E16-IgG1 (antibody, V domains shown)
VH: QMQLVQSGAEVKKPGASVKVSCKVSGYTLTELSIHWVRQAPGKGLEWMGGFDPEDGEAIYAQKSQGRVTMTGDTSTDTAYLELSSLRSEDTALYYCATGRYSEHSTSYGFDYWGQGTLVTVSS
VL: EIVMTQSPATLSLSPGERATLSCRASQSVSSYLAWYQQKPGQAPRLLIYGASSRATGIPDRFSGSGSGTDFTLTISRLEPEDFAVYYCQQYDSWPYTFGQGTKLEIK
notes: human IgG1, human kappa
For the molecule B17, the binding result with human GM-CSFRα-6His [1] is listed as “binds”.

B18: E94-IgG4 (antibody, V domains shown)
VH: QMQLVQSGAEVKKPGASVKVSCKVSGHTLTELSMHWVRQAPGKGLEWMGGFDPEDGETIYAQKFQGRVTMTGDTSTDTAYLELSSLRSEDTALYYCATGRYCETDICYGFDYWGQGTLVTVSS
VL: EIVMTQSPATLSLSPGERATLSCRASQSVSSYLAWYQQKPGQAPRLLIYGASSRATGIPDRFSGSGSGTDFTLTISRLEPEDFAVYYCQQYNNWPPTFGQGTKLEIK
notes: human IgG4, human kappa
Consider B18, for which the binding result in the assay with human GM-CSFRα-6His [3] is recorded as “binds”.

B19: E90-IgG4 (antibody, V domains shown)
VH: QMQLVQSGAEVKKPGASVKVSCKVSGYTLTELSIHWVRQAPGKGLEWMGGFDPEDGETIYAQKSQGRVTMTGDTSTDTAYLELSSLRSEDTALYYCATGRYTGLYASYGFDYWGQGTLVTVSS
VL: EIVMTQSPATLSLSPGERATLSCRASQSVSSYLAWYQQKPGQAPRLLIYGASSRATGIPDRFSGSGSGTDFTLTISRLEPEDFAVYYCQQYDNWPYTFGQGTKLEIK
notes: human IgG4, human kappa
Turning to B19, in the assay with human GM-CSFRα-6His [3], the binding result is listed as “binds”.
